Among the data in PMC8809517, “Cofactor-independent RNA editing by a synthetic S-type PPR protein” are Kd values, retold here.

By Kd is commonly meant the concentration at which binding is half-saturated.

Common to all, as to assay: high-throughput RNA pulldown from lysate on Ni-NTA beads; HRP: 50 mM Tris pH 8, 150 mM NaCl, 1 mM beta-mercaptoethanol, 50 ug/ml BSA, 3 ug/ml yeast RNA, 0.5% heparin; ITC and FP: Tris pH 8, 200 mM KCl, 5% glycerol; MST: 50 mM Tris pH 8, 200 mM NaCl, 1 mM DTT, BSA, heparin, 0.05% Tween 20
Details in all cases: tags: N-terminal His-eGFP

Data set [1] addresses T1, GFP-9S library array, motif 4 ND N98I;D124R (synthetic construct, N98I;D124R).
T1 chain: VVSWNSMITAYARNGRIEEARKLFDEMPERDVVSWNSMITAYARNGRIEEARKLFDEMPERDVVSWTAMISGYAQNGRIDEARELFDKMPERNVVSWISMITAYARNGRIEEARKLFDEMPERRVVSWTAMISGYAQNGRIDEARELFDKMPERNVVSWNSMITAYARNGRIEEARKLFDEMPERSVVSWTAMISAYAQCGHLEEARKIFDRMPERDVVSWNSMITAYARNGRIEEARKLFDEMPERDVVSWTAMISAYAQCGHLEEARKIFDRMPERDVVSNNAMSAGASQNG

The target in data set [2] is T2, GFP-9S library array, motif 4 ND N98K;D124T (synthetic construct, N98K;D124T).
T2 chain: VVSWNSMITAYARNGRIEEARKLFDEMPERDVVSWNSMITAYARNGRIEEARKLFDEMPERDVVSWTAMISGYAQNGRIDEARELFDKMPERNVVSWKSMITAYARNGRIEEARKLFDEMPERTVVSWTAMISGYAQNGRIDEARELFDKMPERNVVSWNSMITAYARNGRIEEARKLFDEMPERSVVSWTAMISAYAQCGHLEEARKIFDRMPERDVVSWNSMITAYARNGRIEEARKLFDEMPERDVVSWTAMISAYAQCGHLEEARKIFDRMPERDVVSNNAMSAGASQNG

Data set [3] deals with T3, GFP-9S library array, motif 4 ND N98L;D124M (synthetic construct, N98L;D124M).
T3 chain: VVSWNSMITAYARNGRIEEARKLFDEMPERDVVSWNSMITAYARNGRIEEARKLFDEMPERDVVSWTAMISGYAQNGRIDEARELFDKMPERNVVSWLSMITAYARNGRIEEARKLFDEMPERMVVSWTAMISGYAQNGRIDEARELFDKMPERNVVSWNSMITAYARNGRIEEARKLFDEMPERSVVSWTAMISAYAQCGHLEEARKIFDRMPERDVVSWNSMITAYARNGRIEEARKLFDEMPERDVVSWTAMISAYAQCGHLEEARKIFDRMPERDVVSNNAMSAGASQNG

Data set [4] deals with T4, GFP-9S library array, motif 4 ND N98P;D124N (synthetic construct, N98P;D124N).
T4 chain: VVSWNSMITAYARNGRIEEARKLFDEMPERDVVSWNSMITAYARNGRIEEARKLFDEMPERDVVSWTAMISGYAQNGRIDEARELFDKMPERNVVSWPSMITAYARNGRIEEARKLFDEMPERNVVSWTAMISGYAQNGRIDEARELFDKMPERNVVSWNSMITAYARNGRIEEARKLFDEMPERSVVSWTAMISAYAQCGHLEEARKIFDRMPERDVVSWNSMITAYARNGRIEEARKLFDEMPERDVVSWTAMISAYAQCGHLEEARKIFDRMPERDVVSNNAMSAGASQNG

In data set [5] the target is T5, GFP-9S library array, motif 4 ND N98R;D124K (synthetic construct, N98R;D124K).
T5 chain: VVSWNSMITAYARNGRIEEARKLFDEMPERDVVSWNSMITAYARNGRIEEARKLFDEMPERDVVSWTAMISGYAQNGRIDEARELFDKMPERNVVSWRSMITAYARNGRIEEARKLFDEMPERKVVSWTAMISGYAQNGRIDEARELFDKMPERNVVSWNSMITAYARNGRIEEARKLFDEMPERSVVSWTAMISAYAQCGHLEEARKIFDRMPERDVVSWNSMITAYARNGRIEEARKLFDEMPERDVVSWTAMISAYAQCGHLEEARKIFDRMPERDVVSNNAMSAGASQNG

As to AUUAGACGUGA (ssRNA) [Cy5-rpoA-G], the equilibrium dissociation constant (Kd) in data set [1] (label: 5' Cy5) was 97.3 nM; in data set [2] (label: 5' Cy5), 83.6 nM; in data set [3] (label: 5' Cy5), 122 nM; in data set [4] (label: 5' Cy5) it was 164 nM; in data set [5] (label: 5' Cy5), 161 nM.
In the case of AUUACACGUGA (ssRNA) [Cy5-rpoA], the dissociation constant (Kd) in data set [1] (label: 5' Cy5) is 86.4 nM; in data set [2] (label: 5' Cy5), 76.8 nM; in data set [3] (label: 5' Cy5) it was 104 nM; in data set [4] (label: 5' Cy5), 172 nM; in data set [5] (label: 5' Cy5), 136 nM.
Take AUUAAACGUGA (ssRNA) [IR-rpoA-A]: the Kd in data set [1] (label: 5' IRDye 800CW) is 168 nM; in data set [2] (label: 5' IRDye 800CW), 211 nM; in data set [3] (label: 5' IRDye 800CW), 381 nM; in data set [4] (label: 5' IRDye 800CW) it was 151 nM; in data set [5] (label: 5' IRDye 800CW), 420 nM.
Consider AUUAUACGUGA (ssRNA) [IR-rpoA-U], for which the Kd was determined as 113 nM in data set [1] (label: 5' IRDye 800CW); 212 nM in data set [2] (label: 5' IRDye 800CW); 176 nM in data set [3] (label: 5' IRDye 800CW); 136 nM in data set [4] (label: 5' IRDye 800CW); 202 nM in data set [5] (label: 5' IRDye 800CW).
